Test results published in publication PMC7644948 (iScience, 2020).

Target: the molecule itself
Test: SEC

B1: PKM2 mutant with triple mutations (R399E, K422A, and N523A) (enzyme)
chain: not shown
stoichiometry N: 2
